Target: T1, human Complement Factor D (CFD), purified from human serum (human, UniProt P00746 26-253)
T1 construct: serum purified (CompTech A136); also called serum purified CFD; hCFD-Comptech
Test: SPR MX96, mAbs amine-coupled, CFD injected

T1 sequence (P00746 26-253): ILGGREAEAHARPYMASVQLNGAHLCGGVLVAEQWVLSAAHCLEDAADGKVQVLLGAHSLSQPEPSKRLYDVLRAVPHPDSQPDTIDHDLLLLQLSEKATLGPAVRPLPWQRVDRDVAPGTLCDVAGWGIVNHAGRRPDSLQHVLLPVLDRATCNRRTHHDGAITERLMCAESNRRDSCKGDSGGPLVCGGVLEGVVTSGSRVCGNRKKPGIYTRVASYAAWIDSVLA

B1: KCD033 (antibody, V domains shown)
VH: EVQLQQSGPELVKPGASMKISCTASGYSFTGYTMTWVKQSHGKNLEWIGLINPYNGGTNYNQKFKGKATLTVDKSSSIAYMELLSLTSEDSAVYYCARRHYGSNWDYWGQGTTLTVSS
VL: DIKLTQSPSSIYTSLGERVTITCKASQDINTYLSWFQQRPGKSPKTLIYRADRLVDGVPSRVRGSGSGQDYSLTISSLEYEDMGIYYCLQYDEFPYTFGGGTKLEIK
B1 was tested, and the Kd was 10.9 nM.

B2: KCD036 (antibody, V domains shown)
VH: EVQLQQSGPELVKPGASMKISCKASGYSFTGYTMTWVKQSHGKNLEWIGLINPYNGGTNYNQKFKGKATFTVDKSSSTAYMELLSLTSEDSAVYYCARRHYGSSWDYWGQGTTLTVSS
VL: DIKLTQSPSSMYASLGERVTITCKASQDINTYLSWFQQKPGKSPKTLIYRANRLVDGVPSRFSGSGSGQDYSLTISSLEYEEMGIYYCLQYDEFPYTFGGGTKLEIK
B2 was tested, and the Kd was 25.5 nM.

B3: KCD011 (antibody, V domains shown)
VH: EVKLVESGGGLVQPGGSLKLSCAASGFTFSSNTMSWVRQTPEKRLEWVAYITNGGGSTYYPDTVKGRFTISRDNARNTLYLQMSSLKSEDTAMYYCARHDYYTMDYWGQGTSVTVSS
VL: DIQMTQSPSSLSASLGGKVTITCKASQDINKYIAWYQHKPGKGPRLLIHYTSTLQPGIPSRFSGSGSGRDYSFSISNLEPEDIATYYCLQYDNLLYTFGGGTKLEIK
With B3 the Kd was 77.5 nM.

B4: KCD062 (antibody, V domains shown)
VH: EVKLVESGGGLVQPGGSLKLSCAASGFTFSTYIMSWVRQTPEKRLEWVAYITSGGSSTYYPDTVKGRFTISRDNAKSTLYLQMSSLKSEDTAMYYCARHAHFYAMDYWGQGTSVTVSS
VL: DIQMTQSPSSLSASLGGKVTITCKASQDINKYIAWYQHKPGKGPRLLIHYTSTLQPGIPSRFSGSGSGRDYSFSISNLEPEDIATYYCLQYDNLLYTFGGGTKLEIK
With B4 the Kd was 24 nM.

B5: KCD056 (antibody, V domains shown)
VH: EVKLVESGGGLVQPGGSLKVSCAASGFTFSTYTMSWVRQTPEKRLEWVAYITNGGGSTYYPDTEKGRFTISRDNAKNTLYLQMSSLKSEDTAMYYCVRHDYYAMDYWGQGTSVTVSS
VL: DIQMTQSPSSLSASLGGKVTITCKASQDINKYIAWYQHKPGKGPRLLIHYTSTLQPGIPSRFSGSGSGRDYSFSISNLEPEDIATYYCLQYDNLLYTFGGGTTLEIK
Work on B5 yielded a Kd of 60.2 nM.

B6: KCD058 (antibody, V domains shown)
VH: EVKLVESGGDLVQPGGSLKLSCAASGFTFSRYIMSWVRLTPEKRLEWVAFITNGGGNTYHPDTVKGRFTISRDNANNTLYLQMSSLKSEDTAIYYCARHDYYALDYWGQGTSVTVSS
VL: DIQMTQSPSSLSASLGGKVTITCKASQDINKYIAWYQHKPGKGPRLLIHYTSTLQPGIPSRFSGSGSGRDYSFSISNLEPEDIATYYCLQYDNLLYTFGGGTKLEIK
B6 showed a Kd of 9.91 nM.

B7: KCD064 (antibody, V domains shown)
VH: EVKLVESGGGLVQPGGSLKLSCAASGFTFSSYIMSWVRQTPEKRLGWVAYITSGGGSTYYPDTVKGRFTISRDNAKNTLYLQMSSLKSEDTAMYYCARHGTGYAMDYWGQGTSVTVSS
VL: DIQMTQSPSSLSASLGGKVTITCKASQDINKYIAWYQHKPGKGPRLLIHYTSTLQPGIPSRFSGSGSGRDYSFSISNLEPEDIATYYCLQYDNLLYTFGGGTELEIK
Work on B7 yielded a Kd of 20.3 nM.

B8: KCD057 (antibody, V domains shown)
VH: EVKLVESGGGLVQPGGSLKLSCAASGFTFSNYIMSWVRQTPEKRLEWVAYITNGGGATYYPDTVKGQFTISRDNAKNTLYLQMSSLKSEDTAIYYCARHDFYALDFWGQGTSVTVSS
VL: DIQMTQSPSSLSASLGGKVTITCKASQDINKYIAWYQHKPGKGPRLLIHYTSTLQPGIPSRFSGSGSGRDYSFSISNLEPEDIATYYCLKYDNLLYTFGGGTKLEIK
With B8 the Kd was 2.71 nM.

B9: KCD063 (antibody, V domains shown)
VH: EVKLVESGGGLVQPGGSLKLSCAASGFIFSSYIMSWVRQTPEKRLEWVAYITNGGGSTYYPDTVKGRLTISRDNAKNTLYLQMSSLKSEDTAMYYCVRHAHYYAMDYWGQGTSVTVSS
VL: DIQMTQSPSSLSASLGGKVTITCKASQDINKYITWYQHKPGKGPRLLIHYTSTLQPGIPSRFSGSGSGRDYSFSISNLEPEDIATYYCLQYDNLLYTFGGGTKLEIK
With B9 the Kd was 33.3 nM.

B10: KCD077 (antibody, V domains shown)
VH: EVQLQQSGAELVRPGALVKLSCKASGFNIKDYYMHWVKQRPEQGLEWIGWIDPENGHTIYDPRFQGKATITADTSSNTAYLQLSSLTSEDTAVYYCSRGLLGFAYWGQGTLVTVSA
VL: DIVMTQSQKFMSTSVGDRVSVTCKASQNVGTNVAWYQQKPGQSPKALIYTASYRYSGVPDRFTGSGSGTDFTLTISNVQSEDLAEYFCQQYNSYPHMYTFGGGTKLEIK
For B10, the Kd was 16.9 nM.

B11: KCD042 (antibody, V domains shown)
VH: EVQLQQSGAELVKPGASVRLSCTASGFNIKHTYIHWVSQRPEQGLEWIGKIDPANGNTKYDPKFQGKATITADTSSNTAYLQLSSLTSEDTAVYYCVNAMEYWGQGTSVTVSS
VL: QSVLTQSPAIMSASPGEKVTMTCSANSSVSDMYWFQQRPGSSPRLLIYDTSNLASGVPVRFSGSGSGTSYSLTISRMEAEDAATYYCQQWSTYPWTFGGGTKLEIK
B11 was tested, and the Kd was 1.43 nM.

B12: KCD048 (antibody, V domains shown)
VH: EVQLQQSGADLVKPGASVKLSCTASGFNIKATYMHWVRQRPEKGLEWIGRIDPANGHTIYDPQFQGKATITSDTSSNTAYLQLNSLTSEDTAVYYCAEAMDYWGQGTSVTVSS
VL: QIVLTQSPAIMSASPGEKVTLTCSATSSVSYMYWYQQKPGSSPRLLIYDTSNLASGVPVRFSGSGSGTSYSLTISRMEAEDDATYYCQQWSNYPFTFGGGTKLEIK
B12 was tested, and the Kd was 1.87 nM.

B13: KCD044 (antibody, V domains shown)
VH: EVQLQQSGAELVKPGASVRLSCTASGFNIKHTYMHWVSQRPERGLEWIGKIDPANGNTKYDPKFQGKATITADTSSNTVYLQLSSLTSEDTAVYYCLNAMEYWGQGTSVTVSS
VL: QSVLTQSPAIMSASPGEKVTMTCSANSSVSDMYWYQQRPGSSPRLLIYDTSNLASGVPVRFSGSGSGTSYSLTISRMEAEDAATYYCQQWSTYPWTFGGGTKLEIK
B13 showed a Kd of 2.62 nM.

B14: KCD102 (antibody, V domains shown)
VH: QVQLQQPGAELVRPGTSVKLSCKASGYTFTSYWMHWVKQRPGQGLEWIGVIDPSDSYTNYNQKFKGKATLTVDTSSSTAYMQLSSLTSEDSAVYYCARNGYDGSMDYWGQGTSVTVSS
VL: EIQMTQTTSSLSASLGDRVTISCRASQDISNYLNWYQQKPDGTVKLLIYYPSRLHSGVPSRFSGSGSGTDYSLTISNLEQEDFATYFCQQGNTLPYTFGGGTKLEIK
For B14, the Kd was 3.56 nM.

B15: KCD103 (antibody, V domains shown)
VH: QVQLQQPGAELVRPGTSVKLSCKASGYTFTSYWMHWVKQRPGQGLEWIGVIDPSDSYTKYNQKFKDKATLTVETSSSTAYMQLSSLTSEDSAVYYCAGNGYDGSMDYWGQGTSVTVSS
VL: DIQMTQTTSSLSASLGDRVTISCRASQDISNSLNWYQQKPDGTVKLLIYYTSRLHSRVPSRFSGSGSGTDYSLTISNLDQEDIATYFCQQANTLPYTFGGGTKLEIK
B15 was tested, and the Kd was 4.37 nM.

B16: KCD101 (antibody, V domains shown)
VH: QVQLQQPGAELVRPGTSVKLSCKASGYTFTSYWMHWVKQRPGQGLEWIGVIDPSDSYTNYNQKFKGKATLTVDTSSSTAYMQLSSLTSEDSAVYYCGRNGYDGSMDYWGQGTSVTVSS
VL: DIQMTQTTSSLSASLGDRVTISCRASQDISNYLNWYQQKPDGTVKLLIYYPSRLHSGVPSRFSGSGSGTDYSLTISNLEQEDFATYFCQQGNTLPYTFGGGTKLEIK
B16 was tested, and the Kd was 3.78 nM.

From patent US20180334496A1 (KODIAK SCIENCES, published 2018)
